Blank lines part the entries; values can stand above or below the molecule they belong to.
Experiments:
[1] = biological target: Fc part of the IgM protomer left after IgMBRAZOR cleavage (two mu chain fragments from Ala344 to the C-terminus) (human); experiment: SEC + native MS; online SEC-Orbitrap-based CDMS of IgM co-expressed with the J-chain, undigested or digested with IgMBRAZOR; sample in PBS, 0.5 μg injected; mobile phase 100 mM ammonium acetate pH 6.8; the oligomer is held by disulfide bonds
[2] = biological target: Recombinant anti-StrepTag IgM protomer (two mu heavy chains and two kappa light chains); experiment: as above

stoichiometry N [1]: 5
Molecule: Fc part of the IgM protomer left after IgMBRAZOR cleavage (two mu chain fragments from Ala344 to the C-terminus) (domain or fragment)

stoichiometry N [2]: 5
B1: Recombinant anti-StrepTag IgM protomer (two mu heavy chains and two kappa light chains) (antibody, V domains shown)
VH: EVQLEQSGPELVKPGASVKMSCKASGYTFTNYYMKWVKQSHGKSLEWIGDLNPNNGDTFYNQKFKGKATLTVDKSSNTAYMQLNSLTSEDSAVYYCARTGRYEENAMDYWGQGTSVTVSS
VL: ELVMTQSPASLAVSLGQRATISCRASESVDSYGKSFMHWYQLKPGQPPKLLIYRASNLESGVPARFSGSGSRTDFTLTIDPVEADDAATYYCQQNNEDPWTFGGGTKLEIK

Source: publication PMC11157650
